The source of these data is US20080274134A1.

This experiment addresses Protein G on µMACS Protein G microbeads (Group G Streptococci) (UniProt P06654). Kind of experiment: immobilisation on µMACS Protein G microbeads.
Sequence of UniProt P06654 (P06654 228-352): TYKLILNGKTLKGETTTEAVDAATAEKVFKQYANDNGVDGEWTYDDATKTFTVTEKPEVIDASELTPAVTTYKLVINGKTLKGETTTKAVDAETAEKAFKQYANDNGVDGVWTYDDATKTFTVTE

In the case of human monoclonal antibody 2G12, the capacity of the microbeads (µg per ml of microbead suspension) amounted to 60.

Substance human monoclonal antibody IgG1b12 displayed a capacity of the microbeads (µg per ml of microbead suspension) of 55.

As to human monoclonal antibody 2F5, the capacity of the microbeads (µg per ml of microbead suspension) was 95.
